Reference: patent US8697369B2, “Method for screening a test substance for activating a receptor associated with FGF 21 activity” (National Institute of Advanced Industrial Science and …, priority 2007, dated 2014)
“Also recorded” adds a separate entry of the source.

B1: FGF21: fibroblast growth factor 21; mouse-derived protein used in Examples 1-7 and 10-13 (protein)
chain: AYPIPDSSPLLQFGGQVRQRYLYTDDDQDTEAHLEIREDGTVVGAAHRSPESLLELKALKPGVIQILGVKASRFLCQQPDGALYGSPHFDPEACSFRELLLEDGYNVYQSEAHGLPLRLPQKDSPNQDATSWGPVRFLPMPGLLHEPQDQAGFLPPEPPDVGSSDPLSMVEPLQGRSPSYAS

Assays:
[1] = molecular target: T1, R1c/betaKlotho-expressing cells (Mus musculus, UniProt P16092+Q99N32); test: Phosphorylation of FRS2 and MAPK (Western blotting) in R1c/betaKlotho-expressing cells; format: cell-based; conditions: presence of heparin; 10 minutes stimulation
T1 construct: the entire-length cDNA of mouse FGFR1c had been cloned; the entire-length cDNA of mouse betaKlotho was cloned into an animal cell expression vector; expressed in transfected cells; host or cells: BaF3 (mouse pro-B) cells
T1 sequence (P16092 22-822): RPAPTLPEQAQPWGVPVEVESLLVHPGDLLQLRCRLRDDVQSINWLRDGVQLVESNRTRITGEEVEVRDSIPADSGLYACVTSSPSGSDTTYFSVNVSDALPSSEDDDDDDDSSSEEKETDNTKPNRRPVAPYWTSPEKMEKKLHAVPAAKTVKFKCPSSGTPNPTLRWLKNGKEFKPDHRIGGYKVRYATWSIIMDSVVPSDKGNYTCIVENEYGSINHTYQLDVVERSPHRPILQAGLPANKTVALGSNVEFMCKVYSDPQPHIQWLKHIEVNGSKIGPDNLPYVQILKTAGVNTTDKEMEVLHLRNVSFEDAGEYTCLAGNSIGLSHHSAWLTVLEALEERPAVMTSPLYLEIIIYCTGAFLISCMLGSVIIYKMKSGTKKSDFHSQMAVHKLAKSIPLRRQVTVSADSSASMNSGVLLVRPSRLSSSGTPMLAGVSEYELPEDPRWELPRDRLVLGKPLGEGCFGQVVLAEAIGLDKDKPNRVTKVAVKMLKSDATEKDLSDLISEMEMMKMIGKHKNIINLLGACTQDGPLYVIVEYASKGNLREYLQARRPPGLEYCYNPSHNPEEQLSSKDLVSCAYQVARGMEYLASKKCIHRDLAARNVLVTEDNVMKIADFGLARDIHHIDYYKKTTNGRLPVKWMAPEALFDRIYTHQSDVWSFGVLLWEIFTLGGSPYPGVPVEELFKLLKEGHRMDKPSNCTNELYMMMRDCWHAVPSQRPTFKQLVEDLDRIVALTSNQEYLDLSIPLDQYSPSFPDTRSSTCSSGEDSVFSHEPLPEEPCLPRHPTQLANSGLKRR
T1 sequence (Q99N32 whole entry): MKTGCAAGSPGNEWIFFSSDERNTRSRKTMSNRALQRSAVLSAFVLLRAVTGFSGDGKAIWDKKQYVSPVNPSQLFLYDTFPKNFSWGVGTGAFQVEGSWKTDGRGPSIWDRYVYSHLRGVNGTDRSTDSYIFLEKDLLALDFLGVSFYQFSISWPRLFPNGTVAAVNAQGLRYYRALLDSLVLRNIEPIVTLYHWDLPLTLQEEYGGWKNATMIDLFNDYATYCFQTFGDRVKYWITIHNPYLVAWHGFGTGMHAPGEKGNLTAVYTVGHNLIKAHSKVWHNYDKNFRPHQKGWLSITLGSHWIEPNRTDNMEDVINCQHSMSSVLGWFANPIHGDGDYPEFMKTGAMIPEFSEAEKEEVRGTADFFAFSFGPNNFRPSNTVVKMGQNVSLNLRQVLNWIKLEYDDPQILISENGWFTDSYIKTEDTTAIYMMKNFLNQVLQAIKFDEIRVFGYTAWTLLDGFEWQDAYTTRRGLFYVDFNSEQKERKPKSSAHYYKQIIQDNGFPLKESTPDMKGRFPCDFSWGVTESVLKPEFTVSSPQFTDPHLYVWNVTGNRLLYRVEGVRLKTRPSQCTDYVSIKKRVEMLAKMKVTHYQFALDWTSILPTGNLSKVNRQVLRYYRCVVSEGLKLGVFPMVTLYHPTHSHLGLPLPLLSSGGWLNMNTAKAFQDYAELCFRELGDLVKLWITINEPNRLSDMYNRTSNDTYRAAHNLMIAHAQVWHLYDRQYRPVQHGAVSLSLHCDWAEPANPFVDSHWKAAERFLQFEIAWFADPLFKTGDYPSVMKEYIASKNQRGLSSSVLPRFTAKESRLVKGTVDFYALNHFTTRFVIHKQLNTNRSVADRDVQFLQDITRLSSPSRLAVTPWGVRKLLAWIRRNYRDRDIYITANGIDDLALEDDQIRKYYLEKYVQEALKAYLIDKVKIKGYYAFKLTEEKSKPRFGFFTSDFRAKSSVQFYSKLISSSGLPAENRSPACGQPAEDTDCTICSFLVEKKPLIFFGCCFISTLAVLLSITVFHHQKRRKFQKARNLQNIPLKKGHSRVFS
Description: (§1) Each FGFR/betaKlotho-expressing cells obtained in Example 6 were stimulated with FGF, and the activated state (phosphorylated state) of a signaling molecule FRS2 (fibroblast growth factor receptor substrate 2) located downstream of FGFR, and that of MAPK (mitogen activated protein kinase; alias: ERK (extracellular signal-regulated kinase; in general, there are two types of ERKs, namely, ERK1 with a molecular weight of 44 kDa and ERK2 with a molecular weight of 42 kDa)), were analyzed. Different types of cells were stimulated with each FGF in the presence of heparin for 10 minutes, and a cell lysate was then prepared. Thereafter, the phosphorylated degree was evaluated by measuring it by a Western blotting method using a commercially available anti-phosphorylation FRS2 antibody or an anti-phosphorylation MAPK antibody.

[2] = molecular target: T2, FGFR1c/betaKlotho-expressing BaF3 cells (Mus musculus, UniProt P16092+Q99N32); test: DNA synthesis (thymidine incorporation) in FGFR1c/betaKlotho-expressing BaF3 cells; format: cell-based; conditions: BaF3 cells expressing FGFR1c and betaKlotho; presence or absence of heparin
T2 construct: the entire-length cDNA of mouse FGFR1c had been cloned; the entire-length cDNA of mouse betaKlotho was cloned into an animal cell expression vector; expressed in transfected cells; host or cells: BaF3 (mouse pro-B) cells
T2 sequence (P16092 22-822): as the sequence (P16092 22-822) above
T2 sequence (Q99N32 whole entry): as the sequence (Q99N32 whole entry) above
Description: (§2) A commonly used measurement method is a cell growth stimulating activity measurement method described in Ornitz, D. M., Xu, J., Colvin, J. S., McEwen, D. G., MacArthur, C. A., Coulier, F., Gao, G. and Goldfarb, M. (1996) Receptor specificity of the fibroblast growth factor family. J Biol Chem, 271, 15292-15297. The summary thereof is as follows. FGF used as a measurement target is added to a culture solution containing a cultured cell having an FGF receptor on the surface thereof, and the obtained mixture is cultured for a certain period of time. Thereafter, a labeled thymidine is added to the culture solution, followed by further culture for a certain period of time. By measuring the amount of the labeled thymidine incorporated into polymeric DNA during the culture, the degree of FGF to activate DNA synthesis is evaluated. (In the present invention as well, this method was adopted when the activity of FGF21 was measured in Examples 4, 5, 6, 8, 9, and 10.)
FGFR1c-expressing BaF3 cells and FGFR1c- and betaKlotho-expressing BaF3 cells were prepared as follows. In the case of FGFR1c-expressing BaF3 cells, an animal cell expression vector into which the entire-length cDNA of mouse FGFR1c had been cloned (described in Ornitz, D. M., Xu, J., Colvin, J. S., McEwen, D. G., MacArthur, C. A., Coulier, F., Gao, G. and Goldfarb, M. (1996) Receptor specificity of the fibroblast growth factor family. J Biol Chem, 271, 15292-15297.) was introduced into BaF3 cells by an electroporation method. The cells were then cultured in the presence of G418 for approximately 2 weeks, so as to obtain drug-resistant clones. Thereafter, such clones were obtained as those capable of growing as a result of FGF1 stimulation. In the case of both FGFR1c- and betaKlotho-expressing BaF3 cells, the entire-length cDNA of mouse betaKlotho was cloned into an animal cell expression vector, and it was then introduced into the FGFR1c-expressing BaF3 cells. The cells were then cultured in the presence of Puromycin and G418 for approximately 2 weeks, so as to obtain drug-resistant clones. In the case of only betaKlotho-expressing BaF3 cells, a betaKlotho-expressing vector was introduced into BaF3 cells, and Puromycin-resistant clones were then obtained. The BaF3 cells, into which the aforementioned genes had been each introduced, were maintained in an RPMI1640 medium containing 10% FBS and interleukin 3 (IL3, supplied by adding a 5% condition medium of WEHI-3 cells). For the growth stimulation experiment, the cells were washed with an RPMI1640 medium, and they were then suspended in an RPMI1640 medium containing 10% FBS, followed by inoculating the suspension on a culture plate. Thereafter, the resultant cells were used.
Immediately after inoculation, BaF3 cells that had expressed each clone and only FGFR1c were stimulated by addition of FGF21 (open bar) or PBS (filled bar) used as a control in the presence of heparin, and they were then cultured for 42 hours. Thereafter, tritium-labeled thymidine was added to the culture solution, and the culture was further continued for 6 hours. Thereafter, the amount of thymidine incorporated into the cells was measured, so as to evaluate DNA synthesis. A DNA synthesis value obtained when the cells were not stimulated with FGF21 was defined as 1, and the ratio of a DNA synthesis value obtained by stimulating with FGF21 to the aforementioned DNA synthesis value was expressed using magnification. […]

[3] = system: FGFR4/betaKlotho-expressing cells; test: Phosphorylation of FRS2 and MAPK (Western blotting) in FGFR4/betaKlotho-expressing cells; format: cell-based, mouse; conditions: presence of heparin; 10 minutes stimulation
Chain of FGFR4/betaKlotho-expressing cells (Q03142 143-366 limits assumed): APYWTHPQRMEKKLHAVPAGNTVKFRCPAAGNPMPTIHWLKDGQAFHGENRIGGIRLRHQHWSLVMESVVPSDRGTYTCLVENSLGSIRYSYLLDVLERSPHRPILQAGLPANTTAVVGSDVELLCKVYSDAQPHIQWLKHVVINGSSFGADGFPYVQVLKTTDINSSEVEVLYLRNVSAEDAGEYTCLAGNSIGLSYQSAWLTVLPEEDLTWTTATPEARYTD
Chain of FGFR4/betaKlotho-expressing cells (as listed by the source): as the sequence (Q99N32 whole entry) above
Description: as §1

[4] = system: R3c/betaKlotho-expressing cells; test: Phosphorylation of FRS2 and MAPK (Western blotting) in R3c/betaKlotho-expressing cells; format: cell-based, mouse; conditions: presence of heparin; 10 minutes stimulation
Chain of R3c/betaKlotho-expressing cells (Q61851 21-369 limits assumed): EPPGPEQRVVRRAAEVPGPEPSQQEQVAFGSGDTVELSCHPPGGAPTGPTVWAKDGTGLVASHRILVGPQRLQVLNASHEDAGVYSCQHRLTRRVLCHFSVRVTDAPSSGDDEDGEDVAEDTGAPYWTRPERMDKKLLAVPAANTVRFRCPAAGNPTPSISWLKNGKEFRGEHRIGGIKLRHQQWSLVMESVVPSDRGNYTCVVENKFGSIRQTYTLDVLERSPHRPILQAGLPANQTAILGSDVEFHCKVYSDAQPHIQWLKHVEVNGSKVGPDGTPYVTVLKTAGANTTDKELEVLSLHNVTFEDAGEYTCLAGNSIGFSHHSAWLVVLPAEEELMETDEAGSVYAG
Chain of R3c/betaKlotho-expressing cells (Q99N32 whole entry, further chain): as the sequence (Q99N32 whole entry) above
Description: as §1

[5] = system: FGFR3c/betaKlotho-expressing BaF3 cells; test: DNA synthesis (thymidine incorporation) in FGFR3c/betaKlotho-expressing BaF3 cells; format: cell-based, mouse; conditions: BaF3 cells expressing FGFR3c and betaKlotho
Chain of FGFR3c/betaKlotho-expressing BaF3 cells (Q61851 21-369 limits assumed): as the sequence (Q61851 21-369 limits assumed) above
Chain of FGFR3c/betaKlotho-expressing BaF3 cells (Q99N32 whole entry, further chain): as the sequence (Q99N32 whole entry) above
Description: as §2
(§3) Whether other receptor molecules can also act as such FGF receptors was examined. An expression vector containing each FGFR (FGFR1b, R1c, R2b, R2c, R3b, R3c, and R4) (described in Ornitz, D. M., Xu, J., Colvin, J. S., McEwen, D. G., MacArthur, C. A., Coulier, F., Gao, G. and Goldfarb, M. (1996) Receptor specificity of the fibroblast growth factor family. J Biol Chem, 271, 15292-15297.) was introduced into betaKlotho-expressing BaF3 cells, so as to obtain clones that were resistant to Puromycin and G418, thereby obtaining FGFR/betaKlotho-expressing cells. Such cells were stimulated with FGF21, and the amount of DNA synthesized was measured.
The activity of FGF21 to stimulate the DNA synthesis of BaF3 cells that had expressed each FGFR (FGFR1c, R2c, F3c, and R4) as well as betaKlotho was compared with the activity of FGF19, which was evolutionally relative to FGF21. By procedures opposite to those of Example 5, namely, an expression vector containing betaKlotho was introduced into BaF3 cells that had expressed each type of FGFR, so as to obtain Puromycin- and G418-resistant clones, thereby obtaining FGFR/betaKlotho-expressing cells. The cells were stimulated with FGF21, FGF19, and FGF1 in the presence of heparin, while changing the amounts of FGF21, FGF19, and FGF1, as shown in the figure, and the amount of DNA synthesized was then measured.

[6] = molecular target: T3, FGFR2c/betaKlotho-expressing cells (Mus musculus, UniProt P21803+Q99N32); test: Phosphorylation of FRS2 and MAPK (Western blotting) in FGFR2c/betaKlotho-expressing cells; format: cell-based; conditions: presence of heparin; 10 minutes stimulation
T3 construct: the entire-length cDNA of mouse betaKlotho was cloned into an animal cell expression vector; expressed in transfected cells; host or cells: BaF3 (mouse pro-B) cells
T3 sequence (P21803 22-821): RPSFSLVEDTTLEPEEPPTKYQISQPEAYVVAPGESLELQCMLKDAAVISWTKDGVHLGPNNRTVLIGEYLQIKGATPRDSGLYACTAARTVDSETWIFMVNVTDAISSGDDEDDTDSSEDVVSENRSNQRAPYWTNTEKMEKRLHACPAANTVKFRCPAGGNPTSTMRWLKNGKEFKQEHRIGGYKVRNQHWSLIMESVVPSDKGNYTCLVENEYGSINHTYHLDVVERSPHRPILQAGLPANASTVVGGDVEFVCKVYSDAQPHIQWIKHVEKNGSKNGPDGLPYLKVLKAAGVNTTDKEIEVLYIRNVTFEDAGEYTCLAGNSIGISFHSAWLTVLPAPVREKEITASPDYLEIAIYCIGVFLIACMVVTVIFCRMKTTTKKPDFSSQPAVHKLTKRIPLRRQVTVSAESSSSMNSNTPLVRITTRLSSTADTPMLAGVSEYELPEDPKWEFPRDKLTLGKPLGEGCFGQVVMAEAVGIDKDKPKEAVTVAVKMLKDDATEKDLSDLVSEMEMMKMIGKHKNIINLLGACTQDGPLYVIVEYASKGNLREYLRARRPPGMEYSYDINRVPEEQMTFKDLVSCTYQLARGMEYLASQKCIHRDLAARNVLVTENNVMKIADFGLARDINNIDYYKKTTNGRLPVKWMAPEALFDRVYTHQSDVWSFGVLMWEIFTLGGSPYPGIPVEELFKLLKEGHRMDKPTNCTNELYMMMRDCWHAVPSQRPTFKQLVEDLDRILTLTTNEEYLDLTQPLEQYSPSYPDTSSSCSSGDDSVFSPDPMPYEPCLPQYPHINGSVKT
T3 sequence (Q99N32 whole entry): as the sequence (Q99N32 whole entry) above
Description: as §1

[7] = system: FGFR4/betaKlotho-expressing BaF3 cells; test: DNA synthesis (thymidine incorporation) in FGFR4/betaKlotho-expressing BaF3 cells; format: cell-based, mouse; conditions: BaF3 cells expressing FGFR4 and betaKlotho; presence of heparin
Chain of FGFR4/betaKlotho-expressing BaF3 cells (Q03142 17-366 limits assumed): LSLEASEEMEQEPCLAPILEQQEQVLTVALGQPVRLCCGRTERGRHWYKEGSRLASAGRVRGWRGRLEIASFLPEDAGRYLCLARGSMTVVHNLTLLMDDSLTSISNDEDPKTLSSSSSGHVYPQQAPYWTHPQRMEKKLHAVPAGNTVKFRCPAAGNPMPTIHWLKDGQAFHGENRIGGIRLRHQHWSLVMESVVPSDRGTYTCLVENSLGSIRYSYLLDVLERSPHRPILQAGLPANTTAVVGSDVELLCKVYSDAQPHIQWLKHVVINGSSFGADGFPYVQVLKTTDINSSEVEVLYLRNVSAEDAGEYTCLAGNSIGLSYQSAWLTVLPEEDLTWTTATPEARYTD
Chain of FGFR4/betaKlotho-expressing BaF3 cells (Q99N32 whole entry, further chain): as the sequence (Q99N32 whole entry) above
Description: as §2, §3
The activity of FGF21 to stimulate the DNA synthesis of BaF3 cells that had expressed each FGFR (FGFR1c, R2c, F3c, and R4) as well as betaKlotho was compared with the activity of FGF19, which was evolutionally relative to FGF21. […] The cells were stimulated with FGF21, FGF19, and FGF1 in the presence of heparin, while changing the amounts of FGF21, FGF19, and FGF1, as shown in the figure, and the amount of DNA synthesized was then measured.

Molecule	phosphorylation of FRS2 and MAPK [1]	DNA synthesis (thymidine incorporated into the cells) [2]	phosphorylation of FRS2 and MAPK [3]	phosphorylation of FRS2 and MAPK [4]	DNA synthesis (thymidine incorporated into the cells) [5]	phosphorylation of FRS2 and MAPK [6]	DNA synthesis (thymidine incorporated into the cells) [7]
FGF1: conventional FGF used as a control	significantly increase the phosphorylation	reacts with all of the receptors	significantly increase the phosphorylation	significantly increase the phosphorylation	reacts with all of the receptors	significantly increase the phosphorylation	reacts with all of the receptors
B1	increases the phosphorylation	reacted with FGF21; also recorded: dose-dependently stimulate DNA synthesis; also recorded: activates; also recorded: able to act on FGFR1c-expressing cells	only in FGFR1c/betaKlotho-expressing cells and FGFR3c/betaKlotho-expressing cells	increases the phosphorylation	reacted with FGF21; also recorded: activates	only in FGFR1c/betaKlotho-expressing cells and FGFR3c/betaKlotho-expressing cells	reacts only with FGFR1c and FGFR3c
